Series [1] relates to HeLa Kyoto. In words: solubility in G1/S (NP-40 vs SDS abundance) (log2 ratio); higher = more soluble. The settings on record: cell cycle stage: G1/S.
Series [2] relates to HeLa Kyoto. In words: melting temperature (median over replicates), in situ; higher = more thermally stable.
Series [3] relates to HeLa Kyoto. In words: solubility change mitosis vs G1/S (difference of NP-40 vs SDS log2 ratios) (log2 ratio difference); higher = more soluble in mitosis.
In series [4] the test system is HeLa Kyoto. In words: thermal stability score vs G1/S (z-score of summed log2 fold changes over temperatures); higher = more thermally stable than in G1/S.
[5] abbreviates: cell cycle stage: early G1 (4.5 h after nocodazole release).
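Throughout, for melting temperature (median over replicates), in situ: HeLa Kyoto cells synchronized by double thymidine or nocodazole block, proteins quantified by TMT10plex mass spectrometry, three independent biological replicates.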
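Throughout, for solubility change mitosis vs G1/S (difference of NP-40 vs SDS log2 ratios): synchronized HeLa Kyoto cells (double thymidine block for G1/S, nocodazole release for mitosis), protein amounts in NP-40 versus SDS lysates quantified by mass spectrometry, three biological replicates.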
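Throughout, for solubility in G1/S (NP-40 vs SDS abundance): HeLa Kyoto cells arrested at G1/S by double thymidine block, proteins quantified by TMT10plex mass spectrometry in mild NP-40 versus SDS extracts, three biological replicates.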
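Throughout, for thermal stability score vs G1/S (z-score of summed log2 fold changes over temperatures): synchronized HeLa Kyoto cells, proteins quantified by TMT10plex mass spectrometry, three biological replicates, mitosis taken 0.5 h after nocodazole release, G1/S directly after double thymidine block.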

With “MRPFFLLCFALPGLLHAQQACSRGACYPPVGDLLVGRTRFLRASSTCGLTKPETYCTQYGEWQMKCCKCDSRQPHNYYSHRVENVASSSGPMRWWQSQNDVNPVSLQLDLDRRFQLQEVMMEFQGPMPAGMLIERSSDFGKTWRVYQYLAADCTSTFPRVRQGRPQSWQDVRCQSLPQRPNARLNGGKVQLNLMDLVSGIPATQSQKIQEVGEITNLRVNFTRLAPVPQRGYHPPSAYYAVSQLRLQGSCFCHGHADRCAPKPGASAGPSTAVQVHDVCVCQHNTAGPNCERCAPFYNNRPWRPAEGQDAHECQRCDCNGHSETCHFDPAVFAASQGAYGGVCDNCRDHTEGKNCERCQLHYFRNRRPGASIQETCISCECDPDGAVPGAPCDPVTGQCVCKEHVQGERCDLCKPGFTGLTYANPQGCHRCDCNILGSRRDMPCDEESGRCLCLPNVVGPKCDQCAPYHWKLASGQGCEPCACDPHNSLSPQCNQFTGQCPCREGFGGLMCSAAAIRQCPDRTYGDVATGCRACDCDFRGTEGPGCDKASGRCLCRPGLTGPRCDQCQRGYCNRYPVCVACHPCFQTYDADLREQALRFGRLRNATASLWSGPGLEDRGLASRILDAKSKIEQIRAVLSSPAVTEQEVAQVASAILSLRRTLQGLQLDLPLEEETLSLPRDLESLDRSFNGLLTMYQRKREQFEKISSADPSGAFRMLSTAYEQSAQAAQQVSDSSRLLDQLRDSRREAERLVRQAGGGGGTGSPKLVALRLEMSSLPDLTPTFNKLCGNSRQMACTPISCPGELCPQDNGTACGSRCRGVLPRAGGAFLMAGQVAEQLRGFNAQLQRTRQMIRAAEESASQIQSSAQRLETQVSASRSQMEEDVRRTRLLIQQVRDFLTDPDTDAATIQEVSEAVLALWLPTDSATVLQKMNEIQAIAARLPNVDLVLSQTKQDIARARRLQAEAEEARSRAHAVEGQVEDVVGNLRQGTVALQEAQDTMQGTSRSLRLIQDRVAEVQQVLRPAEKLVTSMTKQLGDFWTRMEELRHQARQQGAEAVQAQQLAEGASEQALSAQEGFERIKQKYAELKDRLGQSSMLGEQGARIQSVKTEAEELFGETMEMMDRMKDMELELLRGSQAIMLRSADLTGLEKRVEQIRDHINGRVLYYATCK [LAMB3]”, the “solubility in G1/S (log2)” value in series [1] is 0.117. Moreover, the melting temperature in series [2] (cell cycle stage: G1/S) turned out to be 53.8 °C; in series [2] (cell cycle stage: mitosis), 53.6 °C. For the same sequence, the “solubility change mitosis (log2)” value in series [3] is -0.12. For the same sequence, the thermal stability score was -0.552 in series [4] (setting [5]) and 1.4 in series [4] (cell cycle stage: mitosis).
“MRPQELPRLAFPLLLLLLLLLPPPPCPAHSATRFDPTWESLDARQLPAWFDQAKFGIFIHWGVFSVPSFGSEWFWWYWQKEKIPKYVEFMKDNYPPSFKYEDFGPLFTAKFFNANQWADIFQASGAKYIVLTSKHHEGFTLWGSEYSWNWNAIDEGPKRDIVKELEVAIRNRTDLRFGLYYSLFEWFHPLFLEDESSSFHKRQFPVSKTLPELYELVNNYQPEVLWSDGDGGAPDQYWNSTGFLAWLYNESPVRGTVVTNDRWGAGSICKHGGFYTCSDRYNPGHLLPHKWENCMTIDKLSWGYRREAGISDYLTIEELVKQLVETVSCGGNLLMNIGPTLDGTISVVFEERLRQMGSWLKVNGEAIYETHTWRSQNDTVTPDVWYTSKPKEKLVYAIFLKWPTSGQLFLGHPKAILGATEVKLLGHGQPLNWISLEQNGIMVELPQLTIHQMPCKWGWALALTNVI [FUCA2]”: in series [1], the “solubility in G1/S (log2)” value was -0.00865. The melting temperature in series [2] (cell cycle stage: G1/S) and in series [2] (cell cycle stage: mitosis) was 54.8 °C throughout. Further, in series [3], the “solubility change mitosis (log2)” value is -0.00976. In addition, the thermal stability score in series [4] (setting [5]) was 2.46; in series [4] (cell cycle stage: mitosis) it was 3.64.
Regarding “MRRFLLLYATQQGQAKAIAEEICEQAVVHGFSADLHCISESDKYDLKTETAPLVVVVSTTGTGDPPDTARKFVKEIQNQTLPVDFFAHLRYGLLGLGDSEYTYFCNGGKIIDKRLQELGARHFYDTGHADDCVGLELVVEPWIAGLWPALRKHFRSSRGQEEISGALPVASPASSRTDLVKSELLHIESQVELLRFDDSGRKDSEVLKQNAVNSNQSNVVIEDFESSLTRSVPPLSQASLNIPGLPPEYLQVHLQESLGQEESQVSVTSADPVFQVPISKAVQLTTNDAIKTTLLVELDISNTDFSYQPGDAFSVICPNSDSEVQSLLQRLQLEDKREHCVLLKIKADTKKKGATLPQHIPAGCSLQFIFTWCLEIRAIPKKAFLRALVDYTSDSAEKRRLQELCSKQGAADYSRFVRDACACLLDLLLAFPSCQPPLSLLLEHLPKLQPRPYSCASSSLFHPGKLHFVFNIVEFLSTATTEVLRKGVCTGWLALLVASVLQPNIHASHEDSGKALAPKISISPRTTNSFHLPDDPSIPIIMVGPGTGIAPFIGFLQHREKLQEQHPDGNFGAMWLFFGCRHKDRDYLFRKELRHFLKHGILTHLKVSFSRDAPVGEEEAPAKYVQDNIQLHGQQVARILLQENGHIYVCGDAKNMAKDVHDALVQIISKEVGVEKLEAMKTLATLKEEKRYLQDIWS [MTRR]”, in series [1], the “solubility in G1/S (log2)” value was 0.0379. In addition, the melting temperature in series [2] (cell cycle stage: G1/S) was found to be 50.1 °C; in series [2] (cell cycle stage: mitosis), 50.2 °C. For the same sequence, the “solubility change mitosis (log2)” value in series [3] is -0.105. Also, the thermal stability score in series [4] (setting [5]) came to 0.212; in series [4] (cell cycle stage: mitosis) it was 0.326.

Values taken from the supplement of paper PMC5998384.
